Assay results published in patent publication US20180177842A1 (CANIMGUIDE THERAPEUTICS, published 2018).
Ends that are not written are not given here.

B1: Trypsin-generated albumin fragment, SEQ ID NO 196 (peptide)
peptide: VFDEFKPLVEEPQNLIK
B2: Asp-N-generated albumin fragment, SEQ ID NO 224 (peptide)
peptide: KLCTVATLRETYGEMADCCAKQEPERNECFLQHK
B3: Asp-N-generated albumin fragment, SEQ ID NO 218 (peptide)
peptide: DDKETCFAEEGKKLVAASQAALGL
B4: Asp-N-generated albumin fragment, SEQ ID NO 219 (peptide)
peptide: DRVTKCCTESLVNRRPCFSALEV
B5: Asp-N-generated albumin fragment, SEQ ID NO 227 (peptide)
peptide: VFLGMFLYEYARRHPDYSVVLLLRLAKTYETTLEKCCAAA
B6: Trypsin-generated albumin fragment, SEQ ID NO 197 (peptide)
peptide: VPQVSTPTLVEVSR
B7: Trypsin-generated albumin fragment, SEQ ID NO 200 (peptide)
peptide: SLHTLFGDK
B8: Trypsin-generated albumin fragment, SEQ ID NO 214 (peptide)
peptide: YICENQDSISSK
B9: Trypsin-generated albumin fragment, SEQ ID NO 203 (peptide)
peptide: YLYEIAR
B10: Trypsin-generated albumin fragment, SEQ ID NO 195 (peptide)
peptide: KVPQVSTPTLVEVSR
B11: Trypsin-generated albumin fragment, SEQ ID NO 205 (peptide)
peptide: AAFTECCQAADK
B12: Asp-N-generated albumin fragment, SEQ ID NO 225 (peptide)
peptide: ICTLSEKERQIKKQTALVELVKHKPKATKEQLKAVM
B13: Trypsin-generated albumin fragment, SEQ ID NO 215 (peptide)
peptide: LDELRDEGK
B14: Trypsin-generated albumin fragment, SEQ ID NO 212 (peptide)
peptide: VHTECCHGDLLECADDR
B15: Trypsin-generated albumin fragment, SEQ ID NO 216 (peptide)
peptide: DDNPNLPR
B16: Trypsin-generated albumin fragment, SEQ ID NO 207 (peptide)
peptide: QEPERNECFLQHK
modifications: not fully specified
B17: Trypsin-generated albumin fragment, SEQ ID NO 198 (peptide)
peptide: RPCFSALEVDETYVPK
B18: Trypsin-generated albumin fragment, SEQ ID NO 211 (peptide)
peptide: QEPERNECFLQHK
modifications: not fully specified
B19: Asp-N-generated albumin fragment, SEQ ID NO 221 (peptide)
peptide: DSISSKLKECCEKPLLEKSHCIAEVEN
B20: Asp-N-generated albumin fragment, SEQ ID NO 222 (peptide)
peptide: DKLCTVATLRETYGEM
B21: Asp-N-generated albumin fragment, SEQ ID NO 226 (peptide)
peptide: LAKYICENQDSISSKLKECCEKPLLEKHCIAEVEN
B22: Trypsin-generated albumin fragment, SEQ ID NO 204 (peptide)
peptide: CCAAADPHECYAK
B23: Trypsin-generated albumin fragment, SEQ ID NO 213 (peptide)
peptide: FKDLGEENFK
B24: Asp-N-generated albumin fragment, SEQ ID NO 229 (peptide)
peptide: RVTKCCTESLVNRRPCFSALEVDETYVPKEFNAETFTFHA
B25: Asp-N-generated albumin fragment, SEQ ID NO 230 (peptide)
peptide: YLSVVLNQLCVLHEKTPVSDRVTKCCCTESLVNRRPFSALEV
B26: Trypsin-generated albumin fragment, SEQ ID NO 199 (peptide)
peptide: FQNALLVR
B27: Trypsin-generated albumin fragment, SEQ ID NO 202 (peptide)
peptide: LCTVATLR
B28: Asp-N-generated albumin fragment, SEQ ID NO 217 (peptide)
peptide: DHVKLVNEVTEFAKTCVA
B29: Trypsin-generated albumin fragment, SEQ ID NO 206 (peptide)
peptide: CCTESLVNR
B30: Trypsin-generated albumin fragment, SEQ ID NO 208 (peptide)
peptide: AVMDDFAAFVEK
B31: Asp-N-generated albumin fragment, SEQ ID NO 220 (peptide)
peptide: DETYVPKEFNAETFTHA
B32: Trypsin-generated albumin fragment, SEQ ID NO 209 (peptide)
peptide: NECFLQHK
B33: Asp-N-generated albumin fragment, SEQ ID NO 228 (peptide)
peptide: LGEENFKALVLIAFAQYLQQCPFEDHVKLVNEVTEFAKTCVA
B34: Trypsin-generated albumin fragment, SEQ ID NO 201 (peptide)
peptide: LKECCEKPLLEK
B35: Asp-N-generated albumin fragment, SEQ ID NO 223 (peptide)
peptide: YSVVLLLRLAKTYETTLEKCCAAADPHECYAKVF
B36: … (trypsin-generated albumin fragment, SEQ ID NO: 211) (peptide)
peptide: QEPERNECFLQHK
modifications: not fully specified
B37: KYLYEIAR (trypsin-generated albumin fragment, SEQ ID NO: 194) (peptide)
peptide: KYLYEIAR
B38: … (trypsin-generated albumin fragment, SEQ ID NO: 214) (peptide)
peptide: YICENQDSISSK
B39: … (trypsin-generated albumin fragment, SEQ ID NO: 215) (peptide)
peptide: LDELRDEGK
B40: … (trypsin-generated albumin fragment, SEQ ID NO: 195) (peptide)
peptide: KVPQVSTPTLVEVSR
B41: … (trypsin-generated albumin fragment, SEQ ID NO: 212) (peptide)
peptide: VHTECCHGDLLECADDR
B42: … (trypsin-generated albumin fragment, SEQ ID NO: 206) (peptide)
peptide: CCTESLVNR
B43: … (trypsin-generated albumin fragment, SEQ ID NO: 207) (peptide)
peptide: QEPERNECFLQHK
modifications: not fully specified
B44: … (trypsin-generated albumin fragment, SEQ ID NO: 204) (peptide)
peptide: CCAAADPHECYAK
B45: … (trypsin-generated albumin fragment, SEQ ID NO: 205) (peptide)
peptide: AAFTECCQAADK
B46: YLYEIAR (trypsin-generated albumin fragment, SEQ ID NO: 203) (peptide)
peptide: YLYEIAR
B47: … (trypsin-generated albumin fragment, SEQ ID NO: 208) (peptide)
peptide: AVMDDFAAFVEK
B48: … (trypsin-generated albumin fragment, SEQ ID NO: 213) (peptide)
peptide: FKDLGEENFK
B49: NECFLQHK (trypsin-generated albumin fragment, SEQ ID NO: 209) (peptide)
peptide: NECFLQHK
B50: DDNPNLPR (trypsin-generated albumin fragment, SEQ ID NO: 216) (peptide)
peptide: DDNPNLPR

biological target: Artificial Cell Surface (ACS): biotinylated cell surface proteins of human PBMCs bound to a streptavidin column (human); experiment: adsorption on ACS column, MALDI-TOF ms

Going from B1 to B2, the Percent Absorbed rises from 60% to 100%.

Going from B3 to B4, the Percent Absorbed falls from 100% to 87%.

Compared with B5, B6 is lower in Percent Absorbed: 100% for the first, 59% for the second.

First: B7
Second: B8
The Percent Absorbed of the first is higher: 36% for the first, 3% for the second.

Compared with B9, B10 is higher in Percent Absorbed: 34% for the first, 64% for the second.

Going from B11 to B12, the Percent Absorbed rises from 29% to 100%.

Going from B13 to B14, the Percent Absorbed rises from 2% to 13%.

First: B15
Second: B16
The Percent Absorbed of the first is lower: 1% for the first, 25% for the second.

Compared with B17, B18 is lower in Percent Absorbed: 42% for the first, 18% for the second.

B19 and B20 are the same in Percent Absorbed: 65% for the first, 65% for the second.

First: B21
Second: B22
The Percent Absorbed of the first is higher: 100% for the first, 32% for the second.

Compared with B23, B24 is higher in Percent Absorbed: 8% for the first, 100% for the second.

First: B25
Second: B26
The Percent Absorbed of the first is lower: 37% for the first, 41% for the second.

First: B27
Second: B28
The Percent Absorbed of the first is lower: 35% for the first, 100% for the second.

Compared with B29, B30 is lower in Percent Absorbed: 26% for the first, 23% for the second.

First: B31
Second: B32
The Percent Absorbed of the first is higher: 86% for the first, 22% for the second.

Compared with B33, B34 is lower in Percent Absorbed: 100% for the first, 36% for the second.

Work on B35 yielded a Percent Absorbed of 100%.

biological target: Artificial Cell Surface (ACS); experiment: ACS column adsorption of trypsin-digested dHSA, MALDI-TOF MS

Going from B36 to B37, the Percent Absorbed rises from 18% to 71%.

Compared with B38, B39 is lower in Percent Absorbed: 3% for the first, 2% for the second.

First: B40
Second: B41
The Percent Absorbed of the first is higher: 64% for the first, 13% for the second.

Compared with B42, B43 is lower in Percent Absorbed: 26% for the first, 25% for the second.

Going from B44 to B45, the Percent Absorbed falls from 32% to 29%.

Going from B46 to B47, the Percent Absorbed falls from 34% to 23%.

Going from B48 to B49, the Percent Absorbed rises from 8% to 22%.

For B50, the Percent Absorbed was 1%.
